Test results: the Immune Epitope Database (IEDB)

Legend:
HLA-A*30:01 = test: IEDB peptide-MHC binding, purified MHC/competitive/radioactivity; filed as Kd, often an IC50 or EC50 that approximates it; ≥ and ≤ were set here for values at or beyond the usual limits of such assays
HLA-A*03:01 [1] = test: as above
HLA-A*32:01 = test: as above
HLA-A*11:01 [2] = test: as above
HLA-A*02:01 [3] = test: IEDB peptide-MHC binding, purified MHC/direct/fluorescence; filed as Kd, often an IC50 or EC50 that approximates it; ≥ and ≤ were set here for values at or beyond the usual limits of such assays
HLA-A*69:01 = test: as above
HLA-B*07:02 = test: as above
HLA-A*26:01 = test: IEDB peptide-MHC binding, purified MHC/competitive/radioactivity; filed as Kd, often an IC50 or EC50 that approximates it; ≥ and ≤ were set here for values at or beyond the usual limits of such assays
HLA-A*01:01 [4] = test: as above
HLA-A*02:01 [5] = test: IEDB peptide-MHC binding, purified MHC/competitive/fluorescence; ≥ and ≤ were set here for values at or beyond the usual limits of such assays
HLA-A*24:02 = test: as above
HLA-A*68:01 = test: IEDB peptide-MHC binding, purified MHC/competitive/radioactivity; filed as Kd, often an IC50 or EC50 that approximates it; ≥ and ≤ were set here for values at or beyond the usual limits of such assays; settings: source organism: Dengue virus 2 Jamaica/1409/1983
HLA-A*01:01 [6] = test: IEDB peptide-MHC binding, purified MHC/direct/fluorescence; filed as Kd, often an IC50 or EC50 that approximates it; ≥ and ≤ were set here for values at or beyond the usual limits of such assays; settings: source organism: SARS-CoV1
HLA-A*11:01 [7] = test: as above
HLA-A*02:03 = test: IEDB peptide-MHC binding, purified MHC/competitive/radioactivity; filed as Kd, often an IC50 or EC50 that approximates it; ≥ and ≤ were set here for values at or beyond the usual limits of such assays; settings: source organism: SARS coronavirus Tor2
HLA-A*02:02 = test: as above; settings: source organism: SARS coronavirus Tor2
HLA-A*02:06 = test: as above; settings: source organism: SARS coronavirus Tor2
HLA-B*15:01 = test: IEDB peptide-MHC binding, purified MHC/direct/fluorescence; filed as Kd, often an IC50 or EC50 that approximates it; ≥ and ≤ were set here for values at or beyond the usual limits of such assays
HLA-B*35:01 = test: IEDB peptide-MHC binding, purified MHC/competitive/radioactivity; filed as Kd, often an IC50 or EC50 that approximates it; ≥ and ≤ were set here for values at or beyond the usual limits of such assays; settings: source organism: Dengue virus 1 Brazil/97-11/1997
HLA-A*03:01 [8] = test: IEDB peptide-MHC binding, purified MHC/direct/fluorescence; filed as Kd, often an IC50 or EC50 that approximates it; ≥ and ≤ were set here for values at or beyond the usual limits of such assays; settings: source organism: Homo sapiens
HLA-B*58:01 = test: as above; settings: source organism: Homo sapiens
HLA-A*31:01 = test: IEDB peptide-MHC binding, purified MHC/competitive/radioactivity; filed as Kd, often an IC50 or EC50 that approximates it; ≥ and ≤ were set here for values at or beyond the usual limits of such assays; settings: source organism: Dengue virus 3 Singapore/8120/1995
[9] = source organism: Dengue virus 3 Martinique/1243/1999
[10] = source organism: Vaccinia virus WR
[11] = source organism: Dengue virus 1 Brazil/97-11/1997
[12] = source organism: Marburg virus - Musoke, Kenya, 1980
[13] = source organism: Mycobacterium tuberculosis
[14] = source organism: Dengue virus 2 Jamaica/1409/1983
[15] = source organism: Zaire ebolavirus
[16] = source organism: Burkholderia mallei
[17] = source organism: Vaccinia virus
[18] = source organism: Dengue virus 4 Philippines/H241/1956
[19] = source organism: Sudan ebolavirus
[20] = source organism: Dengue virus 3 Singapore/8120/1995

With AIKVLKGFK the Kd (HLA-A*30:01; [9]) was 1.39 µM and the Kd (HLA-A*03:01 [1]; [9]) was 0.157 µM.
With AIMMILSTI the Kd (HLA-A*32:01; [10]) was 0.00245 µM.
With ALLATSIFK the Kd (HLA-A*30:01; [11]) was 0.544 µM, the Kd (HLA-A*03:01 [1]; [11]) was 0.00412 µM and the Kd (HLA-A*11:01 [2]; [11]) was 0.0234 µM.
Sequence ALLTGSYTI has a Kd (HLA-A*02:01 [3]; [12]) of 0.0005 µM and a Kd (HLA-A*69:01; [12]) of 6.66 µM.
For AMLAGTAVV, the Kd (HLA-A*02:01 [3]; [13]) was 0.0059 µM.
APTGDLPRA was tested, and the Kd (HLA-A*02:01 [3]; source organism: Homo sapiens) was at least 21.8 µM, the Kd (HLA-B*07:02; source organism: Homo sapiens) was 5.52 µM and the Kd (HLA-A*69:01; source organism: Homo sapiens) was 6.78 µM.
For ATARSSPEK, the Kd (HLA-A*30:01; [10]) was 0.000584 µM.
ATVTGGIFLF gave a Kd (HLA-A*26:01; [14]) of 2.51 µM and a Kd (HLA-A*01:01 [4]; [14]) of 2.03 µM.
AVPVHWVPTS gave a Kd (HLA-A*30:01; [9]) of 10.5 µM.
For AWIPYFGPA, the IC50 (HLA-A*02:01 [5]; [15]) was 20 µM and the IC50 (HLA-A*24:02; [15]) was at least 81.1 µM.
Work on CLRCSKLNL yielded a Kd (HLA-A*30:01; [10]) of 0.482 µM.
With DAAAPLPPV the Kd (HLA-A*02:01 [3]; [16]) was at least 20 µM and the Kd (HLA-A*69:01; [16]) was 0.0008 µM.
Sequence DGIRGFPRC has an IC50 (HLA-A*02:01 [5]; [15]) of at least 126 µM.
DKLSSTNQL showed an IC50 (HLA-A*24:02; [15]) of 16.2 µM.
Work on DVFFTPPEK yielded a Kd (HLA-A*30:01; [14]) of 1.3 µM and a Kd (HLA-A*68:01) of 0.00359 µM.
EEINNQLLL showed an IC50 (HLA-A*24:02; [17]) of 57.8 µM.
Work on EFLRYLLFG yielded an IC50 (HLA-A*24:02; [17]) of 17.8 µM.
EIQLTDYGAL was tested, and the Kd (HLA-A*26:01; [11]) was 5.58 µM.
For ELSFTVVSN, the IC50 (HLA-A*02:01 [5]; [15]) was at least 220 µM and the IC50 (HLA-A*24:02; [15]) was at least 119 µM.
Sequence EPIVGAETF has a Kd (HLA-B*07:02; source organism: Human immunodeficiency virus 1) of 5.64 µM.
With ETTKRDLGM the Kd (HLA-A*26:01; [9]) was 1.45 µM.
FLNEDHWFGR was tested, and the Kd (HLA-A*32:01; [18]) was 1.56 µM.
In the case of FNYLFGGFS, the IC50 (HLA-A*02:01 [5]; source organism: Variola virus) is reported as 51.6 µM.
FRKSSFFVW gave an IC50 (HLA-A*24:02; [19]) of 2.42 µM.
FTPQFLLQL gave an IC50 (HLA-A*02:01 [5]; [15]) of 0.292 µM and an IC50 (HLA-A*24:02; [15]) of 0.814 µM.
In the case of FVDGVPFVV, the Kd (HLA-A*02:01 [3]; source organism: SARS-CoV1) is reported as 0.124 µM, the Kd (HLA-A*69:01; source organism: SARS-CoV1) is reported as 0.0233 µM and the Kd (HLA-A*01:01 [6]) is reported as 1.41 µM. It also gave a Kd (HLA-A*11:01 [7]; source organism: SARS-CoV1) of at least 23.1 µM, a Kd (HLA-A*02:03) of 0.0859 µM and a Kd (HLA-A*02:02) of 0.00962 µM. It also gave a Kd (HLA-A*02:06) of 0.000908 µM.
GKIIHEWCCR showed a Kd (HLA-A*32:01; [11]) of at least 51.6 µM.
GLDPTGVAV showed a Kd (HLA-A*02:01 [3]; [13]) of 0.0174 µM.
GLVSKFMSN showed an IC50 (HLA-A*02:01 [5]; [10]) of 13.8 µM.
Sequence GMHHLYREY has a Kd (HLA-B*15:01; source organism: Mammarenavirus juninense) of 0.135 µM.
With GNPGRFWNTT the Kd (HLA-A*32:01; [14]) was 9.9 µM.
GPILTLWEGN showed a Kd (HLA-A*32:01; source organism: Dengue virus 4 Dominica/814669/1981) of 0.504 µM.
For GQLKLNWFKK, the Kd (HLA-A*32:01; [14]) was 2.07 µM.
GRQTQSRPI showed an IC50 (HLA-A*24:02; [15]) of at least 204 µM.
GSKASCVLK showed a Kd (HLA-A*30:01; [10]) of 0.265 µM.
GTNGISNGI was tested, and the Kd (HLA-A*32:01; [10]) was 0.0201 µM.
Work on GVTGILQLP yielded an IC50 (HLA-A*02:01 [5]; [15]) of 63.5 µM.
For HAHWTEAKM, the Kd (HLA-B*35:01) was 0.285 µM.
In the case of HHRRTDNDS, the IC50 (HLA-A*02:01 [5]; [15]) is reported as at least 72.1 µM.
HILGPDCCI was tested, and the IC50 (HLA-A*02:01 [5]; [15]) was 66.4 µM and the IC50 (HLA-A*24:02; [15]) was at least 135 µM.
IADMGHLKY gave a Kd (HLA-A*03:01 [8]) of 3.03 µM, a Kd (HLA-B*58:01) of 2 µM and a Kd (HLA-B*15:01; source organism: Homo sapiens) of 4.09 µM. It also gave a Kd (HLA-A*11:01 [7]; source organism: Homo sapiens) of 2.8 µM.
With IAVGMVTLY the Kd (HLA-B*35:01) was 0.0135 µM.
IDSMFLMTA was tested, and the IC50 (HLA-A*02:01 [5]; source organism: Variola virus) was 28.7 µM.
IGVLLTWIGL gave a Kd (HLA-A*32:01; [9]) of at least 33 µM.
IHHASAPLT was tested, and the IC50 (HLA-A*02:01 [5]; [15]) was at least 378 µM.
INQIIHDFI was tested, and the IC50 (HLA-A*24:02; [19]) was 2.77 µM.
Sequence INVEYRFLV has an IC50 (HLA-A*02:01 [5]; [10]) of 1.65 µM and an IC50 (HLA-A*24:02; [10]) of 5.73 µM.
IRYQATGFG was tested, and the IC50 (HLA-A*24:02; [15]) was 54.4 µM.
In the case of ISGQSPART, the IC50 (HLA-A*02:01 [5]; [15]) is reported as at least 137 µM.
ITDYQGKTV showed a Kd (HLA-A*01:01 [4]; [18]) of at least 33.9 µM.
Work on ITVIDLEPIS yielded a Kd (HLA-A*30:01; [18]) of 0.105 µM.
KALKINWYK showed a Kd (HLA-A*30:01; [20]) of 0.36 µM, a Kd (HLA-A*03:01 [1]; [20]) of 0.0841 µM and a Kd (HLA-A*31:01) of 0.00011 µM. The Kd (HLA-A*11:01 [2]; [20]) was 0.0817 µM.
